The values below come from patent US10004812B2 (priority 2014, dated 2018).

Like-named read-outs stand apart in the source and are kept apart here. *1 amine or outer side, *2 acyl side, *3 side chain or, on linkers, in order; H or OH if unused. Where a SMILES comes first, the peptide text is derived from it. [ ]: non-standard residue; d: D form. The star is where a group is joined. ξ: configuration not given here. NPrTuv(OPr) = CCCO[C@H](C[C@H](C(C)C)N(CCC)[*:1])c1nc(C(=O)[*:2])cs1; Dolaproine = CO[C@@H]([C@@H]1CCCN1)[C@@H](C)C(=O)O; Hexanoyl(6-maleimido) = O=C1C=CC(=O)N1CCCCCC(=O)*; X1 = COC(=O)[C@@H](C)C[C@H](Cc1ccc(O)cc1)N*; Dil = CC[C@H](C)[C@H](NC)[C@@H](CC(=O)O)OC; PABC = O=C(OCc1ccc(N[*:1])cc1)[*:2]; X2 = C[C@@H](N*)[C@@H](O)c1ccccc1; Cit = NC(=O)NCCC[C@H](N)C(=O)O; NMeV = CN[C@H](C(=O)O)C(C)C; ξIle = CC[C@H](C)C(N)C(=O)O; dPip = O=C(O)[C@H]1CCCCN1

For data set [1], the system named is HT1080 cells. Briefly: Cell proliferation arrest on HT1080 cells (CPA; crystal violet). It is filed as cell-based. As to the method:
Microtubule inhibition activity and cytotoxic activity of each new derivative were evaluated through tubulin polymerization inhibition assay (TPI; Tubulin Polymerization assay kit; Cytoskeleton, Cat. #BKO11P), and cell proliferation arrest on HT1080 cells (CPA; crystal violet).

For data set [2] the following is noted: Table 3, published data; cited from earlier work.
Another data set has as its system HT1080-FAP cell line. It counts as cell-based. The note with it: crystal violet viability, FIG. 6, read-out: cytotoxic activity IC50.
The test system of data set [3] is rabbit reticulocyte cell-free lysates.
The target in the next data set is T1, recombinant human ENG (Homo sapiens, UniProt P17813).
T1 sequence (P17813 whole entry, looked up): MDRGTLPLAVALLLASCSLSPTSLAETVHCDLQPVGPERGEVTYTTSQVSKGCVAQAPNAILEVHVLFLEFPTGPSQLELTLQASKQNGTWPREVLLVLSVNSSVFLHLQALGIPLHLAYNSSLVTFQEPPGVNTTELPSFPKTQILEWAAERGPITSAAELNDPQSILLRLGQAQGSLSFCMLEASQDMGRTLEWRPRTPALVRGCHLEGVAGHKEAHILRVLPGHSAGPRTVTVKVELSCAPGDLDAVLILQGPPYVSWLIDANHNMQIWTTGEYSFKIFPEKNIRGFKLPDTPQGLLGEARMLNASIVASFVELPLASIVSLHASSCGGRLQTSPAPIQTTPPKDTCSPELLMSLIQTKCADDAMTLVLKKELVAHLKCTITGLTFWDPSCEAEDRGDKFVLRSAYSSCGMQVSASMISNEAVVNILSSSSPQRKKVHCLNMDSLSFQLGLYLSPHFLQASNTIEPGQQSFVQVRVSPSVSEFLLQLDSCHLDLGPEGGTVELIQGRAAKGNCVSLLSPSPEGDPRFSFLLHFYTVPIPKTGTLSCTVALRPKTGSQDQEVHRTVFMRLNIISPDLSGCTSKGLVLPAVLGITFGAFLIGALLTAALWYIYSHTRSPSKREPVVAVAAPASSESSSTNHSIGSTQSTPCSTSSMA
Briefly: ELISA binding to immobilized recombinant human ENG. The conditions noted are these: FIG. 3a.

Data set [4] concerns HT1080 cells. Briefly: Internalization by indirect immunofluorescence confocal microscopy. It is filed as cell-based, human. As to the method:
(§1) Purified proteins A5-IgG and mE12-IgG were characterized by SDS-PAGE and size exclusion chromatography. Bioactivity was analyzed by ELISA, using recombinant mouse/human ENG and detection of bound antibodies with HRP-conjugated anti-human IgG antibodies. Cell binding was analyzed by flow cytometry, using ENG-positive HT1080 and ENG expressing mouse eEnd2. Melting points were determined by dynamic light scattering using a zetasizer nano. Affinities were determined by QCM using an Attana A100. Internalization study was performed by indirect immunofluorescence confocal microscopy on permeabilized cells, detecting bound and internalized antibodies with a FITC-labeled secondary antibody.
Preliminary internalization studies indicate rapid cellular internalization for A5-IgG against cells expressing human ENG. Indeed within 30 min, almost 90% of the A5-IgG is found within HT1080 cells.

A short description of data set [5]: Melting point by dynamic light scattering (zetasizer nano). It counts as physicochemical. The conditions noted are these: thermal stability. As to the method: as §1
Data set [6] relates to HT1080 cells. Briefly: Flow cytometry cell binding, ENG-positive HT1080 cells. The note with it: FIG. 3b. Details: species or system human. As to the method: Purified anti-muENG mE12 and anti-huENG A5 antibodies were analyzed in ELISA for binding to recombinant ENG and using flow cytometry analysis (FACS).
as §1

Data set [7] has as its system PAXF-736 pancreas cancer xenograft. Briefly: Anti-tumoral effect in patient-derived xenograft mouse model for pancreas cancer (PAXF-736). It is filed as in vivo. As to the method: Both types of immunoconjugates, recNgA- and cytolysin-conjugates, were evaluated for their anti-tumoral effect in vivo in a patient-derived xenograft mouse model for pancreas cancer (PAXF-736), previously selected for antigen expression.
Immunoconjugates were then administrated once a week intraperitoneally over 5 weeks. Tumor volume and body weight were measured every 2-3 days. Vehicle-treated and Gemcitabine-treated (150 mg/kg) PDX mice were used as negative and positive control groups, respectively.

Description for recombinant human ENG: Bioactivity was analyzed by ELISA using recombinant ENG and detection of bound antibodies with HRP-conjugated anti-human IgG antibodies.

As for `CC[C@H](C)[C@@H]([C@@H](CC(=O)N1CCC[C@H]1[C@H](OC)[C@@H](C)C(=O)N[C@H](C)[C@@H](O)c1ccccc1)OC)N(C)C(=O)[C@@H](NC(=O)[C@@H](NC)C(C)C)C(C)C` [MMAE, reference compound] (H-[NMeV]V[Dil][Dolaproine]-X2), the IC50 in the data set with HT1080 cells [1] lay within 0.1 to 0.6 nM.
Turning to `CCCO[C@H](C[C@H](C(C)C)N(CCC)C(=O)[C@@H](NC(=O)[C@H]1CCCCN1C)[C@@H](C)CC)c1nc(C(=O)N[C@@H](Cc2ccc(O)cc2)C[C@H](C)C(=O)NNC(=O)OCCOCCOCCOCCNC(=O)CCCCCN2C(=O)C=CC2=O)cs1` [TAM552], inhibition in the data set on HT1080 cells [1] (Homo sapiens, HT-1080) was half-maximal at 10 nM (IC50).
In turn, `CC[C@H](C)[C@H](NC(=O)[C@H]1CCCCN1C)C(=O)N(COC(=O)CC(C)C)[C@H](C[C@@H](OC(C)=O)c1nc(C(=O)N[C@@H](Cc2ccc(O)cc2)C[C@H](C)C(=O)O)cs1)C(C)C` [Tubulysin A, reference compound] registered a half-inhibitory concentration (IC50) in the data set with HT1080 cells [1] of 0.04 to 0.2 nM.
In the case of `CCCO[C@H](C[C@H](C(C)C)N(CCC)C(=O)[C@@H](NC(=O)[C@H]1CCCCN1C)[C@@H](C)CC)c1nc(C(=O)N[C@@H](Cc2ccc(O)cc2)C[C@H](C)C(=O)NNC(=O)OCc2ccc(NC(=O)[C@@H](CCCNC(N)=O)NC(=O)[C@H](NC(=O)CCCCCN3C(=O)C=CC3=O)C(C)C)cc2)cs1` [TAM471, Maleimido-Val-Cit-PABOCO-Tubulysin/Cytolysin-TAM470], the IC50 in the data set on HT1080 cells [1] (Homo sapiens, HT-1080) was 17 to 42 nM.
On the same count and under the same terms, then `CCCO[C@H](C[C@H](C(C)C)N(CCC)C(=O)C(NC(=O)[C@H]1CCCCN1C(=O)OCc1ccc(NC(=O)[C@H](CCCNC(N)=O)NC(=O)[C@@H](NC(=O)CCCCCN2C(=O)C=CC2=O)C(C)C)cc1)[C@@H](C)CC)c1nc(C(=O)N[C@@H](Cc2ccc(O)cc2)C[C@H](C)C(=O)OC)cs1` (stereo partly drawn) [TAM467, Maleimido-Val-Cit-PABOCO-Tubulysin/Cytolysin-TAM461] ({Hexanoyl(6-maleimido)}-V[Cit][PABC][dPip][ξIle][NPrTuv(OPr)]-X1), with 230 to 420 nM.
For the molecule “Nigrin b: native (WT) Nigrin b, type 2 ribosome-inactivating protein with A and B chains”, the “Mouse LD50” value in [2] is 12,000.00 μgkg^−1. For the same molecule, the IC50 in the data set on HT1080-FAP cell line was approximately 20 nM; in [3], approximately 0.0025 nM.
In the data set on HT1080 cells [1] (Homo sapiens, HT-1080), `CCCO[C@H](C[C@H](C(C)C)N(CCC)C(=O)[C@@H](NC(=O)C(C(C)C(=O)OCc1ccc(NC(=O)[C@H](CCCNC(N)=O)NC(=O)[C@@H](NC(=O)CCCCCN2C(=O)C=CC2=O)C(C)C)cc1)[C@@H](C)CC)[C@@H](C)CC)c1nc(C(=O)N[C@@H](Cc2ccccc2)C[C@H](C)C(=O)O)cs1` (stereo partly shown) [TAM551] yielded an IC50 of 90 nM.

B1: A5-IgG1: human anti-human Endoglin IgG1; heavy chain SEQ ID NO: 3, light chain SEQ ID NO: 4; ADCC/CDC deficient (antibody)
heavy: EVQLLESGGGLVQPGGSLRLSCAASGFTFSSYAMSWVRQAPGKGLEWVSAIYGSDGDTTYADSVKGRFTISRDNSKNTLYLQMNSLRAEDTAVYYCARVFYTAGFDYWGQGTLVTVSSASTKGPSVFPLAPSSKSTSGGTAALGCLVKDYFPEPVTVSWNSGALTSGVHTFPAVLQSSGLYSLSSVVTVPSSSLGTQTYICNVNHKPSNTKVDKKVEPKSCDKTHTCPPCPAPPVAGPSVFLFPPKPKDTLMISRTPEVTCVVVDVSHEDPEVKFNWYVDGVEVHNAKTKPREEQYNSTYRVVSVLTVLHQDWLNGKEYKCKVSNKGLPSSIEKTISKAKGQPREPQVYTLPPSRDELTKNQVSLTCLVKGFYPSDIAVEWESNGQPENNYKTTPPVLDSDGSFFLYSKLTVDKSRWQQGNVFSCSVMHEALHNHYTQKSLSLSPGK
light: DIELTQSPSSLSASVGDRVTITCRASQSISSSLNWYQQKPGKAPKLLIYAASSLQSGVPSRFSGSGSGTDFTLTISSLQPEDFATYYCQQAPAKPPTFGQGTKLEIKRTVAAPSVFIFPPSDEQLKSGTASVVCLLNNFYPREAKVQWKVDNALQSGNSQESVTEQDSKDSTYSLSSTLTLSKADYEKHKVYACEVTHQGLSSPVTKSFNRGEC
modifications: Synthetic sequence A5-IgG1-HC - without signal sequence; Synthetic sequence A5-IgG1-LC - without signal sequence
In the case of B1, the “binding to human ENG by ELISA, in words” value with recombinant human ENG is given as “concentration-dependent binding”. For the same molecule, the “internalization (time)” value in the data set on HT1080 cells [4] (HT1080) was 30 to 60 min. Besides, the “share of antibody found within cells” value in the data set with HT1080 cells [4] (HT1080 cells, within 30 min, preliminary) was approximately 90%. The “Tm (DLS)” value in data set [5] turned out to be 72 °C. The “binding to human ENG by flow cytometry, in words” value in the data set on HT1080 cells [6] is on record as “concentration-dependent binding”.

B2: OMTX505: recNgA immunoconjugate tested in vivo (conjugate)
heavy: QVQLVQSGAEVKKPGASVKVSCKASGYTFTENIIHWVRQAPGQGLEWMGWFHPGSGSIKYNEKFKDRVTMTADTSTSTVYMELSSLRSEDTAVYYCARHGGTGRGAMDYWGQGTLVTVSSASTKGPSVFPLAPSSKSTSGGTAALGCLVKDYFPEPVTVSWNSGALTSGVHTFPAVLQSSGLYSLSSVVTVPSSSLGTQTYICNVNHKPSNTKVDKKVEPKSCDKTHTCPPCPAPPVAGPSVFLFPPKPKDTLMISRTPEVTCVVVDVSHEDPEVKFNWYVDGVEVHNAKTKPREEQYNSTYRVVSVLTVLHQDWLNGKEYKCKVSNKGLPSSIEKTISKAKGQPREPQVYTLPPSRDELTKNQVSLTCLVKGFYPSDIAVEWESNGQPENNYKTTPPVLDSDGSFFLYSKLTVDKSRWQQGNVFSCSVMHEALHNHYTQKSLSLSPGK
light: DIQMTQSPSSLSASVGDRVTITCRASKSVSTSAYSYMHWYQQKPGKAPKLLIYLASNLESGVPSRFSGSGSGTDFTLTISSLQPEDFATYYCQHSRELPYTFGQGTKLEIKRTVAAPSVFIFPPSDEQLKSGTASVVCLLNNFYPREAKVQWKVDNALQSGNSQESVTEQDSKDSTYSLSSTLTLSKADYEKHKVYACEVTHQGLSSPVTKSFNRGEC
chain: MIDYPSVSFNLDGAKSATYRDFLSNLRKTVATGTYEVNGLPVLRRESEVQVKSRFVLVPLTNYNGNTVTLAVDVTNLYVVAFSGNANSYFFKDATEVQKSNLFVGTKQNTLSFTGNYDNLETAANTRRESIELGPSPLDGAITSLYHGDSVARSLLVVIQMVSEAARFRYIEQEVRRSLQQATSFTPNALMLSMENNWSSMSLEIQQAGNNVSPFFGTVQLLNYDHTHRLVDNFEELYKITGIAILLFRCSSPSND
Take B2: the “in vivo anti-tumoral efficacy” value in data set [7] (0.5 mg/kg, once a week i.p. over 5 weeks, single agent) was 60%. Further, in data set [7] (combined with Gemcitabine, tumor regression), the tumor growth inhibition is reported as 100%.

The term IC50 denotes the point on the concentration scale where inhibition reaches its midpoint.
